Experimental data published in patent publication US20130130989A1 (AGENCY FOR SCIENCE TECHNOLOGY AND RESEARCH, published 2013).
Square brackets hold non-standard residues; d marks the D form. Ends that are not written are not given here. αMeF = C[C@](N)(Cc1ccccc1)C(=O)O; Ac5c = NC1(C(=O)O)CCCC1; Aib = CC(C)(N)C(=O)O

B1: Tr2_AIB3_A3C (peptide)
peptide: YDREFLLXFQF
modifications: position 631 (printed '3') = 1-amino cyclopropanoic acid; C-terminal amide (-NH2)
B2: eIF4G1_me5 peptide (KKRYDRE*LL5FQF) (peptide)
peptide: KKRYDRE[αMeF]LL[Ac5c]FQF
modifications: not fully specified (C-terminus)
notes: also called modified 14mer eIF4G1_me5 peptide; helically stabilized peptide
B3: Tr2_me5-1 peptide (YDRE*LL5FQF) (peptide)
peptide: YDREXLLXFQF
modifications: not fully specified; Cα-methyl-L-phenylalanine at position 628; 1-aminocyclopentanecarboxylic acid (A5C) at position 631
notes: also called truncated modified Tr2_me5-1 peptide
B4: Tr2_AIB3_A4C (peptide)
peptide: YDREFLLXFQF
modifications: position 631 (printed '4') = 1-amino cyclobutanoic acid; C-terminal amide (-NH2)
B5: Tr2_me5_3 (peptide)
peptide: YDREFLLXFQX
modifications: position 631 (printed '5') = 1-amino cyclopentanoic acid; position 634 (printed '*') = Cα-Me-L-Phenylalanine; C-terminal amide (-NH2)

Legend:
[1] = biological target: eukaryotic translation initiation factor 4E (eIF4E), full length human (human) (UniProt P06730); experiment: Kd estimated from FTS thermal shift
Chain of eukaryotic translation initiation factor 4E (eIF4E), full length human (human) (P06730 2-217): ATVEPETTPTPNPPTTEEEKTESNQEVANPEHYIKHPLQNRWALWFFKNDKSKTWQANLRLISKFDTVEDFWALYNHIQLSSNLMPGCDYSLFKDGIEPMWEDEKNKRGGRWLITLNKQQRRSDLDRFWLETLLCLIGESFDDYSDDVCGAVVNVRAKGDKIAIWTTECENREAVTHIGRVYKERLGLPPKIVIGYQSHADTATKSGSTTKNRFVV

[2] = biological target: eukaryotic translation initiation factor 4E (eIF4E), full length human (human) (UniProt P06730); experiment: fluorescence-based thermal shift assay (FTS), Sypro Red, 10 µM eIF4E, 100 µM peptide
[3] = biological target: T1, eukaryotic translation initiation factor 4E (eIF4E), full length human (human, UniProt P06730 2-217); experiment: fluorescence-based thermal stability assay (FTS)
T1 construct: mature; read as P06730; also called eIF4E protein
T1 sequence (P06730 2-217): as above

[4] = biological target: T1, eukaryotic translation initiation …; experiment: fluorescence-based thermal shift assay (FTS), Sypro Red, 10 µM eIF4E, 100 µM peptide
Procedure: The fluorescent dye Sypro Red was used to monitor thermal denaturation of eIF4E. Binding of the dye molecule to eIF4E, as it unfolds due to thermal denaturation, results in a sharp increase in the fluorescence intensity. The midpoint of this transition is termed the Tₘ. The thermal shift assay was conducted in the iCycler Real Time Detection System (Bio-Rad, Hercules, Calif.). The system contains a heating/cooling device for accurate temperature control and a charge-coupled device (CCD) detector for simultaneous imaging of the fluorescence changes in the wells of the microplate. […] The final protein concentration was 10 μM. Protein samples were incubated with derivative peptides at a concentration of a 100 μM. The plate was heated from 20 to 90° C. with a heating rate of 1° C./min.

[5] = biological target: T1, eukaryotic translation initiation …; experiment: Kd estimated from the FTS thermal shift of eIF4E (10 µM eIF4E, 100 µM peptide)
Procedure: A fluorescence based thermal shift assay was used to screen and rank the rationally designed eIF4E binding derivative peptides. The fluorescent dye Sypro Red was used to monitor thermal denaturation of eIF4E. Binding of the dye molecule to eIF4E, as it unfolds due to thermal denaturation, results in a sharp increase in the fluorescence intensity. The midpoint of this transition is termed the Tₘ. The thermal shift assay was conducted in the iCycler Real Time Detection System (Bio-Rad, Hercules, Calif.).

[6] = biological target: T1, eukaryotic translation initiation …; experiment: FTS thermal shift assay
[7] = biological target: T1, eukaryotic translation initiation …; experiment: ITC, apparent Kd against the template peptide
Procedure: (§1) ITC experiments were conducted in a VP-ITC Unit (MicroCal, Northampton, Mass.). […] The buffer used for dialysis of the protein was used to dilute the peptides to their final working concentration. The protein buffer solution was matched to the peptide solution by the addition of DMSO in the case of the non TAT fused peptides. The titration experiments were performed at 20° C. with an initial 2 μl injection with duration of 4 s, fooled by 28 10 μl injections with a duration of 7.1 s. The spacing between each injection was 150 s. The stirring speed during the titration was 290 rpm. Data was analyzed using Microcal Origin software by fitting to a single-site binding model. Correction for the enthalpy of ligand dilution was carried out by subtracting a linear fit from the last three data points of the titration, after the interaction had reached saturation.

[8] = biological target: T1, eukaryotic translation initiation …; experiment: ITC, peptide titrated into eIF4E, 20 °C, PBS, one-to-one binding model; entropy calculated; design: unit not given here
[9] = biological target: T1, eukaryotic translation initiation …; experiment: ITC, peptide titrated into eIF4E, 20° C.
Procedure: as §1

[10] = biological target: T1, eukaryotic translation initiation …; experiment: ITC
[11] = biological target: T1, eukaryotic translation initiation …; experiment: Kd estimated from the FTS thermal shift of eIF4E (10 µM eIF4E, 200 µM peptide)
[12] = biological target: T1, eukaryotic translation initiation …; experiment: fluorescence-based thermal shift assay (FTS), Sypro Red, 10 µM eIF4E, 200 µM peptide (*)
Procedure: A fluorescence based thermal shift assay was used to screen and rank the rationally designed eIF4E binding derivative peptides. The fluorescent dye Sypro Red was used to monitor thermal denaturation of eIF4E. Binding of the dye molecule to eIF4E, as it unfolds due to thermal denaturation, results in a sharp increase in the fluorescence intensity. The midpoint of this transition is termed the Tₘ. The thermal shift assay was conducted in the iCycler Real Time Detection System (Bio-Rad, Hercules, Calif.). The system contains a heating/cooling device for accurate temperature control and a charge-coupled device (CCD) detector for simultaneous imaging of the fluorescence changes in the wells of the microplate.

[13] = biological target: T1, eukaryotic translation initiation …; experiment: ITC, peptide titrated into eIF4E, 20 °C, PBS, one-to-one binding model; entropy calculated
[14] = biological target: T1, eukaryotic translation initiation …; experiment: ITC, peptide titrated into eIF4E, 20 °C, PBS, one-to-one binding model; design: unit not given here
[15] = biological target: T1, eukaryotic translation initiation …; experiment: ITC, apparent Kd
[16] = biological target: T1, eukaryotic translation initiation …; experiment: ITC, peptide titrated into eIF4E, 20 °C, PBS, one-to-one binding model
Procedure: as §1

| Molecule | ΔT (°C) [4] [°C] | Kd [5] [nM] | further results |
| --- | --- | --- | --- |
| Tr2_AIB3_A5C peptide (YDREFLL5FQF) | – | – | Kd [1]: 1450 nM; ΔT (°C) [2]: 6.6 °C |
| YGRKKRRQRRR (also called TAT tag) [TAT peptide (YGRKKRRQRRR)] | – | – | binding result [3]: no binding |
| YDREFLLGF[Aib]F (not fully specified (C-terminus)) [Tr2_AIB4 peptide] | 1.52 | 25100 | – |
| B1 | 5.67 | 2500 | – |
| B2 | 14.6 | 7 | fold increase in thermal shift over the original 14-mer eIF4G1 peptide [6]: 1.7 fold; thermal shift in the melting temperature of eIF4E [6]: ~14 ° C.; fold more potent than the template peptide (eIF4G1) [7]: ~15.7 fold; -TΔS [8]: -3.69; Kd [9]: 9.43 nM; binding enthalpy [10]: -14.4 kcal/mol; ΔΔG against the template peptide (eIF4G1) [10]: ~1.6 kcal/mol |
| B3 | 8.8 | 360 | -TΔS [8]: -6.89; Kd [9]: 146 nM; binding enthalpy [10]: -16.1 kcal/mol |
| YDREFLLGFQ-NH2 [Tr3] | – | – | Kd [11]: 35200 nM; ΔT (°C) [12]: 2.25 °C |
| YGRKKRRQRRRGTKKRYDRE[αMeF]LL[Ac5c]FQF [TAT_eIF4G1_me5 peptide (YGRKKRRQRRRGTKKRYDRE*LL5FQF)] | – | – | thermal shift in the Tm of eIF4E greater than that of the TAT_eIF4G1 peptide [6]: ~0.82 ° C.; ΔS [13]: -5.69 Cal mol-1K-1; ΔH [14]: -12.4; Kd [15]: 10.2 nM |
| YGRKKRRQRRRGTKKRYDREFLLGFQF (also called eIF4G1 TAT fused peptide) [TAT_eIF4G1 peptide] | – | – | ΔS [13]: 15 Cal mol-1K-1; ΔH [14]: -5.52; fold lower Kd than the shorter parent peptide (eIF4G1) [10]: ~2.7 fold; Kd [15]: 56.2 nM |
| B4 | 5.8 | 2350 | – |
| Y[Aib]REFLLGFQF (not fully specified (C-terminus)) [Tr2_AIB1 peptide] | 1.32 | 29800 | – |
| KKRYDREFLL-NH2 [Tr1] | – | – | Kd [11]: 50200 nM; ΔT (°C) [12]: 1.7 °C |
| YDR[Aib]FLLGFQF (not fully specified (C-terminus)) [Tr2_AIB2 peptide] | – | – | binding result [4]: no binding (tested: 100 µM) |
| YDREFLLGFQF (not fully specified (C-terminus), also called truncated Tr2) [Tr2 peptide (truncated 11mer eIF4G1 peptide)] | 4.2 | 5960 | -TΔS [8]: -2.91; Kd [9]: 1040 nM; binding enthalpy [10]: -10.9 kcal/mol; Kd [16]: 1010 nM |
| ADREFLLGFQF (not fully specified (C-terminus)) [11mer (control) peptide with the conserved tyrosine mutated to alanine] | – | – | binding result [12]: no binding (tested: 200 µM); ΔT (°C) [12]: 0.65 °C |
| YDREFLLAFQF-NH2 (not fully specified) [Tr2_AIB3_ALA] | 5.6 | 2550 | – |
| YDREFLLXFQF (not fully specified; G631 replaced with aminoisobutyric acid (Aib)) [Tr2_AIB3 peptide] | 5.42 | 3050 | – |
| YDREFLL[Ac5c]FQA (not fully specified (C-terminus)) [Tr2_ALA_A5C7 (Tr2_AIB3_A5C with F634 replaced with alanine)] | 5.48 | 2900 | – |
| YAREFLL[Ac5c]FQF (not fully specified (C-terminus)) [Tr2_ALA_A5C1 (Tr2_AIB3_A5C with alanine at position 625)] | 5.02 | 760 | – |
| YDREFLL[Ac5c]AQF (not fully specified (C-terminus)) [Tr2_ALA_A5C5 (Tr2_AIB3_A5C with F632 replaced with alanine)] | 3.65 | 8400 | – |
| YDREALL[Ac5c]FQF (not fully specified (C-terminus), 29=625, 30=626, 31=627, 34=633)) [Tr2_ALA_A5C4 (Tr2_AIB3_A5C with F628 replaced with alanine)] | 3.72 | 8090 | – |
| YDAEFLL[Ac5c]FQF (not fully specified (C-terminus)) [Tr2_ALA_A5C2 (Tr2_AIB3_A5C with R626 replaced with alanine)] | 2.69 | 14300 | – |
| YDREFLL[Ac5c]FAF (not fully specified (C-terminus)) [Tr2_ALA_A5C6 (Tr2_AIB3_A5C with alanine at position 633)] | 6.72 | 1370 | – |
| YDRAFLL[Ac5c]FQF (not fully specified (C-terminus)) [Tr2_ALA_A5C3 (Tr2_AIB3_A5C with alanine at position 627)] | 4.22 | 1220 | – |
| B5 | 5.8 | 2400 | – |
